Earlier results as cited in patent US5389611A, “Lactoferrin hydrolyzate for use as an antibacterial agent and as a tyrosinase inhibition agent” (priority 1990, dated 1995).
Like-named read-outs stand apart in the source and are kept apart here.

Assays:
[1] = system: coliform bacillus (Escherichia coli), staphylococcus and other enterobacteria; settings: Nonnecke and Smith 1984
[2] = Ford et al 1977

For lactoferrin, the “concentration having antibacterial activity” value [1] is given as 0.5 to 30 mg/mL, the “antibacterial activity after heating” value ([2]; heating at 62.5° C. for 30 minutes) is given as “almost completely suppressed” and the “antibacterial activity after heating” value ([2]; heating at 70° C. for 15 minutes) is given as “complete deactivation”.
